Square brackets hold non-standard residues; d marks the D form. Ends that are not written are not given here. Nle = CCCC[C@H](N)C(=O)O
Legend:
MC1-R = biological target: T1, MC1-R (Mus musculus, UniProt Q01727); assay: competitive inhibition binding assay, 125I-NDP-alpha-MSH, B-16 mouse melanoma cell membranes; details: 1 μM test peptide; 0.4 nM 125I-NDP-alpha-MSH; B-16 mouse melanoma cell membranes
T1 construct: membranes prepared from hMC3-R, hMC4-R, hMC5-R, and B-16 mouse melanoma cells (containing MC1-R); endogenous in cells; host or cells: B-16 mouse melanoma cells (membranes)
Method: (§1) The competitive inhibition binding assay was conducted using membranes prepared from hMC3-R, hMC4-R, hMC5-R, and B-16 mouse melanoma cells (containing MC1-R) using 0.4 nM ^125I-NDP-alpha-MSH (New England Nuclear, Boston, Mass., USA) in 50 mM HEPES buffer containing 1 mM MgCl2, 2 mM CaCl2, and 5 mM KCl, at pH 7.2. The assay tube also contained a chosen concentration of the test peptide of this invention complexed to a rhenium metal ion, typically at a 1 μM concentration, for determining its efficacy in inhibiting the binding of ^125I-NDP-alpha-MSH to its receptor. Non-specific binding was measured by complete inhibition of binding of ^125I-NDP-alpha-MSH in the assay with the presence of 1 μM alpha-MSH. Incubation was for 90 minutes at room temperature, after which the assay mixture was filtered and the membranes washed three times with ice cold buffer. The filter was dried and counted in a gamma counter for remaining radioactivity bound to the membranes. 100% specific binding was defined as the difference in radioactivity (cpm) bound to cell membranes in the absence and presence of 1 μM alpha-MSH. The cpm obtained in presence of test compounds were normalized with respect to 100% specific binding to determine the percent inhibition of ^125I-NDP-alpha MSH binding. Each assay was conducted in triplicate and the actual mean valves are described.

hMC3-R = biological target: T2, hMC3-R (Homo sapiens, UniProt P41968); assay: competitive inhibition binding assay, 125I-NDP-alpha-MSH, hMC3-R membranes; details: 1 μM test peptide; 0.4 nM 125I-NDP-alpha-MSH; hMC3-R membranes
T2 construct: expressed in transfected cells
Method: as §1

hMC4-R = biological target: T3, hMC4-R (Homo sapiens, UniProt P32245); assay: competitive inhibition binding assay, 125I-NDP-alpha-MSH, hMC4-R membranes; details: 1 μM test peptide; 0.4 nM 125I-NDP-alpha-MSH; hMC4-R membranes
T3 construct: expressed in transfected cells
Method: as §1

hMC5-R = biological target: T4, hMC5-R (Homo sapiens, UniProt P33032); assay: competitive inhibition binding assay, 125I-NDP-alpha-MSH, hMC5-R membranes; details: 1 μM test peptide; 0.4 nM 125I-NDP-alpha-MSH; hMC5-R membranes
T4 construct: expressed in transfected cells
Method: as §1

T2 sequence (P41968 whole entry): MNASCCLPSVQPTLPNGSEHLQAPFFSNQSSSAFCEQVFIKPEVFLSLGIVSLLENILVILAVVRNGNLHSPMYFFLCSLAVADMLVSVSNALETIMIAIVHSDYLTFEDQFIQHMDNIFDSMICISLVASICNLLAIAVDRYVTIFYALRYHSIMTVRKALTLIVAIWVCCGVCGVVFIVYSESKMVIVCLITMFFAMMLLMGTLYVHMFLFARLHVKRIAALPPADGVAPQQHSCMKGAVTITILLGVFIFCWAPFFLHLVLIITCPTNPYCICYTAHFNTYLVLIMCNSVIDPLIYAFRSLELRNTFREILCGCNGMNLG
T4 sequence (P33032 whole entry): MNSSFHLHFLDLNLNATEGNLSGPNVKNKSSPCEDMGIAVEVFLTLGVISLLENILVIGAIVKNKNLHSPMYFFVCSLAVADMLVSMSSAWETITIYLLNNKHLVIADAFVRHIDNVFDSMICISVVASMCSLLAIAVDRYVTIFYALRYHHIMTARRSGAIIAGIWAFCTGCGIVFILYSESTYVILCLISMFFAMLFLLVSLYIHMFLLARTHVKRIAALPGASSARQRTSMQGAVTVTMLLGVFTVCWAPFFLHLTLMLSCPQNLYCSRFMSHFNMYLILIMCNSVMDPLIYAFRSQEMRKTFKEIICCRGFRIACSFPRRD
T3 sequence (P32245 whole entry): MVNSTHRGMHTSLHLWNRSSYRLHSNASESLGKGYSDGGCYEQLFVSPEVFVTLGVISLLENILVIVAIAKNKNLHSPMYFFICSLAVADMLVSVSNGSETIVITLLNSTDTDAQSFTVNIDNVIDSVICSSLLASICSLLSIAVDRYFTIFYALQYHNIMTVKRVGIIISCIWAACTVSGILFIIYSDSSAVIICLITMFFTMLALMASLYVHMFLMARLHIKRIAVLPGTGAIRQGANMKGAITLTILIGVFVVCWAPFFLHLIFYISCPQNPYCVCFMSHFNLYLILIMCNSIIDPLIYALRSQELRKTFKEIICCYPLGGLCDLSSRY
T1 sequence (Q01727 whole entry): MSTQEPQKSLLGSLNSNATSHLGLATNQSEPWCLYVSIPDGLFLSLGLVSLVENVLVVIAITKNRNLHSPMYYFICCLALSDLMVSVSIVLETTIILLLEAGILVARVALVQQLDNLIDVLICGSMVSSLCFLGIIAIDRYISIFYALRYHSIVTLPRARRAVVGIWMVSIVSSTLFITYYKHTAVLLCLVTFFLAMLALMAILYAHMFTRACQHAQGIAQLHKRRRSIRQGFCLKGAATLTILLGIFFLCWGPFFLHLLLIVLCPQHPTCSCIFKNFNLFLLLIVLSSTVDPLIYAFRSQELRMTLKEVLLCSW

Row | Substance | % Inhibition at 1 μM at Melanocortin Receptor 1 (MC1-R) [%] | % Inhibition at 1 μM at Melanocortin Receptor 3 (hMC3-R) [%] | % Inhibition at 1 μM at Melanocortin Receptor 4 (hMC4-R) [%] | % Inhibition at 1 μM at Melanocortin Receptor 5 (hMC5-R) [%]
1 | Ac-Ser-Tyr-Ser-Nle-Glu-D-Cys-His-Phe-Arg-Trp-Gly-Lys-Pro-Val-NH2 (Ac-SYS[Nle]E[dC]HFRWGKPV-NH2; numbers in words are those of the source; also: oxorhenium(V) N3S1 chelate via Cys (Re(V)=O)) [2-9] | 92 | 13 | 35 | 2
2 | Tyr-Val-Nle-Gly-His-Cys-D-Phe-Arg-Trp-Asp-Arg-Phe-NH2 [3-8] (YV[Nle]GHC[dF]RWDRF-NH2; numbers in words are those of the source; also: oxorhenium(V) N3S1 chelate complex (Re=O)) | 86 | 60 | 55 | 84
3 | Tyr-Val-Nle-Gly-His-D-Phe-Cys-Arg-Trp-Asp-Arg-Phe-NH2 (YV[Nle]GH[dF]CRWDRF-NH2; also: Re complex) [3-6] | 52 | 20 | 31 | 31
4 | Ac-Ser-Tyr-Ser-Nle-Glu-His-Phe-Arg-D-Cys-Trp-Gly-Lys-Pro-Val-NH2 (chain 1 Ac-SYS[Nle]EHFR; chain 2 [dC]WGKPV-NH2; not fully specified (bridges); numbers in words are those of the source; also: oxorhenium(V) N3S1 chelate (Re(V)=O)) [2-6] | 46 | 2 | 6 | 6
5 | Tyr-Val-Nle-Gly-His-Cys-Arg-Trp-Asp-Arg-Phe-NH2 (YV[Nle]GHCRWDRF-NH2; numbers in words are those of the source; also: oxorhenium(V) N3S1 chelate (Re=O) with Cys) [5-6] | 74 | 26 | 4 | 21
6 | Ac-Ser-Tyr-Ser-Cys-Nle-Glu-His-Phe-Arg-Trp-Gly-Lys-Pro-Val-NH2 (chain 1 Ac-SYSC[Nle]; chain 2 EHFRWGKPV-NH2; not fully specified (bridges); printed as Ac-Ser-Tyr-Ser-Cys-Nle-Glu-His-Phe-Arg-Trp-Gly-Lys-Pro-Val-NH2; also: oxorhenium(V) N3S1 chelate (Re(V)=O)) [1-11] | 95 | 18 | 21 | 6
7 | Tyr-Val-Nle-Cys-Gly-His-Phe-Arg-Trp-Asp-Arg-Phe-NH2 (YV[Nle]CGHFRWDRF-NH2; not fully specified (bridges); printed as Tyr-Val-Nle-Cys-Gly-His-Phe-Arg-Trp-Asp-Arg-Phe-NH2; numbers in words are those of the source; also: oxorhenium(V) N3S1 chelate (Re=O) with Cys) [4-9] | 1 | 19 | 4 | 43
8 | Tyr-Val-Nle-Gly-His-Phe-Arg-Trp-Asp-Arg-Phe-Cys-NH2 (GHFRWDRFC; N-terminal Tyr-Val-Nle; C-terminal amide; printed: Gly-His-Phe-Arg-Trp-Asp-Arg-Phe-Cys-) [4-1] | 56 | 69 | 36 | 41
9 | Ac-Ser-Tyr-Ser-Nle-D-Cys-Glu-His-Phe-Arg-Trp-Gly-Lys-Pro-Val-NH2 (Ac-SYS[Nle][dC]EHFRWGKPV-NH2; numbers in words are those of the source; also: oxorhenium(V) N3S1 chelate via Cys (Re(V)=O)) [2-10] | 65 | 0 | 18 | 0
10 | Ac-Ser-Tyr-Ser-Nle-Glu-His-Cys-Phe-Arg-Trp-Gly-Lys-Pro-Val-NH2 (Ac-SYS[Nle]EHCFRWGKPV-NH2; not fully specified (bridges); printed as Ac-Ser-Tyr-Ser-Nle-Glu-His-Cys-Phe-Arg-Trp-Gly-Lys-Pro-Val-NH2; numbers in words are those of the source; also: oxorhenium(V) N3S1 chelate (Re(V)=O)) [1-8] | 42 | 0 | 0 | 1
11 | Tyr-Val-Nle-Gly-His-D-Phe-Arg-Trp-Asp-Arg-Cys-Phe-NH2 (YV[Nle]GH[dF]RWDRCF-NH2; also: Re complex) [3-2] | 99 | 91 | 89 | 100
12 | Ac-Ser-Tyr-Ser-Nle-Glu-His-Phe-D-Cys-Arg-Trp-Gly-Lys-Pro-Val-NH2 ({Ac-Ser-Tyr-Ser-Nle-Glu-H2N}-F[dC]RWGKPV-NH2; numbers in words are those of the source; also: oxorhenium(V) N3S1 chelate via Cys (Re(V)=O)) [2-7] | 54 | 0 | 6 | 0
13 | Ac-Ser-Tyr-Ser-Nle-Glu-His-Phe-Arg-Trp-Gly-Cys-Lys-Pro-Val-NH2 (Ac-SYS[Nle]EHFRWGCKPV-NH2; not fully specified (bridges); printed as Ac-Ser-Tyr-Ser-Nle-Glu-His-Phe-Arg-Trp-Gly-Cys-Lys-Pro-Val-NH2; numbers in words are those of the source; also: oxorhenium(V) N3S1 chelate (Re(V)=O)) [1-4] | 72 | 0 | 0 | 6
14 | Tyr-Val-Nle-Cys-Gly-His-D-Phe-Arg-Trp-Asp-Arg-Phe-NH2 (YV[Nle]CGH[dF]RWDRF-NH2; not fully specified (bridges); printed as Tyr-Val-Nle-Cys-Gly-His-D-Phe-Arg-Trp-Asp-Arg-Phe-NH2; numbers in words are those of the source; also: oxorhenium(V) N3S1 chelate complex (Re=O)) [3-10] | 84 | 78 | 80 | 86
15 | Tyr-Val-Cys-Nle-Gly-His-Phe-Arg-Trp-Asp-Arg-Phe-NH2 (YVC[Nle]GHFRWDRF-NH2; not fully specified (bridges); printed as Tyr-Val-Cys-Nle-Gly-His-Phe-Arg-Trp-Asp-Arg-Phe-NH2; numbers in words are those of the source; also: oxorhenium(V) N3S1 chelate (Re=O) with Cys) [4-10] | 28 | 10 | 2 | 17
16 | Tyr-Val-Nle-Gly-His-D-Phe-Cys-Trp-Asp-Arg-Phe-NH2 (YV[Nle]GH[dF]CWDRF-NH2; numbers in words are those of the source; also: oxorhenium(V) N3S1 chelate complex (Re=O)) [5-5] | 67 | 15 | 26 | 28
17 | Ac-Ser-Tyr-Ser-Nle-Cys-Glu-His-Phe-Arg-Trp-Gly-Lys-Pro-Val-NH2 (Ac-SYS[Nle]CEHFRWGKPV-NH2; not fully specified (bridges); printed as Ac-Ser-Tyr-Ser-Nle-Cys-Glu-His-Phe-Arg-Trp-Gly-Lys-Pro-Val-NH2; numbers in words are those of the source; also: oxorhenium(V) N3S1 chelate (Re(V)=O)) [1-10] | 72 | 0 | 7 | 5
